# In paper PMC4634408:
# Target: thrombin (human alpha-thrombin as purchased) (Homo sapiens) (UniProt P00734+P00734)
# Assay: electrochemical impedance spectroscopy
# Details: 5'-HS-C6 thiol spacer; EIS with 2.5 mM [Fe(CN)6]3-/4- in phosphate buffer (PB) pH 7.0 with 0.1 M K2SO4; pH 6.6-7.8 and 15-40 C also tested (best pH 7.0, 35 C); standard incubation …
sequence,measurement,value
TTTGGTTGGTGTGGTTGG [ThA thrombin aptamer (15-mer with dT3 spacer)],binding signal,-28 % dRct/Rct0
